Test results as given in the DeepSol protein solubility set.

Test: soluble on expression in E. coli; label from the status in PepcDB or PDB records

Sequence | soluble on expression in E. coli
MRRTLHNELQELRGNIRVYCRIRPALKNLENSDTSLINVNEFDDNSGVQSMEVTKIQNTAQVHEFKFDKIFDQQDTNVDVFKEVGQLVQSSLDGYNVCIFAYGQTGSGKTFTMLNPGDGIIPSTISHIFNWINKLKTKGWDYKVNCEFIEIYNENIVDLLRSDNNNKEDTSIGLKHEIRHDQETKTTTITNVTSCKLESEEMVEIILKKANKLRSTASTASNEHSSRSHSIFIIHLSGSNAKTGAHSYGTLNLVDLAGSERINVSQVVGDRLRETQNINKSLSCLGDVIHALGQPDSTKRHIPFRNSKLTYLLQYSLTGDSKTLMFVNISPSSSHINETLNSLRFASKVNSTRLVSRK | soluble
MGSDKIHHHHHHMSLSAQKCGRFFVSIQTEFEQERPTHKGGEIGIDMGVTRFATLSNGEFFEPLNAFKTYKGKLAKLQKQLKNKVKFSKNWQKLKEKIGKLHHKIANCRKDFLHKISTQISKNHAMIYVEDLQVANMSKSAKGTVEAHGKNVKQKSGLNRAILDQSWFEFRRQLDYKTQWLGGFLVAVPPRDTSRTCPCCGHIAKENRETQAHFECVECGYRENADVVGGINVLARGLAIVQA | not soluble
MEVAPSFSSVLKDCAVIEGQDFVLQCSVRGTPVPRITWLLNGQPIQYARSTCEAGVAELHIQDALPEDHGTYTCLAENALGQVSCSAWVTVH | soluble
MSLDRFVVTYRIVAEDEADAAARAASIALEDTVEIPRDVVPAGYVEDVVLGRVESVTARGGGVWTALIGYHVDAVGRELPQLLNVILGNASILRGVKAVDLAPDAALAERFPGARFGAAGVRRLTGRASGGFVCPVIKPQGSSAETLARLCYLSAVAGADIVKEDHGLANQDAAPFRERIGACAEAVGRANAERRDQGDTTQALYFANLCGPPHQLRDQAYYAKESGAHGILLIPGLHGFDAMFELAQDPDFDLPIMAHPSHLGPYVLSPDHGYGHGMLFGQLMRLAGADISVFPNHGGRFGFSVDECEEIVRACRDPEGLGPAILPSPGGGMSPERLPDMMAQYGEDCVYLLGGSLLRAGDRIGELIAEMRAALSGRDEGHHHHHH | soluble
MGSDKIHHHHHHMKMDFKIRIAQQSDSAELRDLYKNTVLVVNRRDYSQDEVEDWASCGDDLSNIEEMIKTHYFIVAVNQLSQIVGFSSITPQGYLHSMFIHADFQGKGIATMLLEEIERYAITKGIIQITSEVSLTARPFFEKQKYVVKKEQKRQANKLNLTNFWMAKTLSVIKPYHGRIPACGVFCGGCPSYTRDEKICQGAEENKTRCEKCRTFYLCCVEKGITHCYQCHLFPCTKFKGFTKRWLKYGQDFIENQKFLKQVGEMEFLRFYNEKVTD | not soluble
MSLDSHRISVLHVDDEPGLGETTAEFLRQQSDGFSVETATSTSEGLKRLTEAPFDCIVSDYDMADMDGIEFLRAVRAEYPDLPFVLFTGKGSEEVASEAVSAGVSDYLQKRGGTERYTLLANRITNLVTQHRAEERLRTRVQQQEAVADLGQYALTGCGLDALFERAVESVAAGLNTEYSKVLEYRPADNKFLLRAGVGWQSGLVGEAAVGAGEESQAGYTLQTEEPVVVEDLRTESRFSGPSLLLDHGVVSGISVIIGTTTEPWGVLGAHTSERRPFTKDDITFVRGVANTLTNAIEREQLEGTLRQAEQRYKTLLENFPGGGVFLFDDDLRYLIARGEGLSAFGLTPADVEGKTLAEVFPPAVVERQKPKYRAALDGETQVWTQEYEGKQYRLSTLPVTGSSDKQLGMVVSMDITGLSASEGHHHHHH | soluble
MSFLSIPINEKSLSFIKNNFQAQIQALEQFYPIIKNALNLGLNPSSIKFGGGTALSMYYFQHRLSFDMDLFVNDAQCLGFFSPKLWIDNCSHFDSTRYIDQHNHIGVTNKDNIKIDVLVDYASNEGYVDNSKKIFAFDIYIESLENIIAKKITFRKTDNKTRDIFDIAVALHNDNNLFDKLLSSQKITKQDLLTLQNSLQELDKKRYSIEIDMVEPISHYKDLSLSAYDFLIDKIDQIKTATYSNSHDNADDLDNSNEYTPTPKRRR | not soluble
NDPDADRFAVAARKADGEYQMLTGDQVGSLFGHYLLSQTDAHRQLVGNTIVSSSLLSKIAAAHGARYYQTLTGFKWLTNVAMQEQTEQHQFLFAYEEALGYTIGSTVWDKDGLSALVAFAQLAAELNAQGKTVWDQLEALYRQHGLHVN | not soluble
MKIFENIEDVKAIRKKTGLNQIDFWGKVGVTQSGGSRYETGRKMPKPVRELLRLVHIECIDLAKVNKKDMEIAALLKKHHPDLYAELSKQTKSERKKQS | not soluble
MPLLSVIIPFGLSKERPYIEERVLQKAKFFQSDENIEFIFVEGYSSKDHELKNFIQANHHIYLKDMDQKAFSQGRCRNLGASYAHSNVLLFLDVDCYISLDNFEKILKLIQIKNISQNINALIVLPVVYLNKEANEKLKQYDDKFWDILIQEDLFTAKNTWVKFFAPSSTSSIVINKHQFLRLGGNDENFIGHGYEDFDLFARILKACVSFEKMPTNLSYDARNWNFFNFKGFRSWFSLLGYEACFYGIYIYHFYHIEPNQNAYMQNKDKNHQLFYKHLKNIKKHDLKPLQVFKAKGEKVLMLFKDQNYDFKDISVYVGEIIYKNISDFFIAKELKYELLLDFLQQEKITKIFLDASIKLQFNGIDYCDIFYFQKGILPHSWFFAKKLDLGYKQDLNLSEQKLYQVKEYFLTLKEDEKKVILDFLSQNNDDKYDLYKMLYYLINELYSFEHDGIFYQIIIDKEKMLIAQKHDKSFYPLRSFVYKPYLHELKSIRPFSFLMKILGLEYLGAMISHTKFYRLARKLFFNPKGFFEDFNYKIMKGKI | not soluble
GHMAGNPPDPNAASTGTNPSPQAAGDISPEMMPETANIKLGYIPIVEAAPLIIAQEKGFFAKYGMTGVEVSKQANWASARDNVTIGSQGGGIDGGQWQMPMPHLITEGIITNGNKVPMYVLAQLITQGNGIAVAPMHEGKGVNLDITKAADYIKGFNKTNGRKFKAAHTFPNVNQDFWIRYWFAAGGVDPDTDIDLLAVPPAETVQGMRNGTMDAFSTGDPWPYRIVTENIGYMAGLTAQIWPYHPEEYLAIRADWVDKNPKATKALLKGIMEAQQWIDDPKNRPEVVQIVSGRNYFNVPTTILESPFKGQYTMGDGQPAIDDFQKGPLYWKDGIGNVSYPYKSHDLWFLTESIRWGFHKNAIPDLDTAQKIIDKVNREDLWREAATEAGFTADIPSSTSRGVETFFDGITFDPANPSAYLQSLAIKKV | soluble
MRKYKLGIYEKALPKNISWQDRLSIAKSCGFDFVEMSIDETDERLARLEWSKEQRLALVNSIVTTGITIPSMCLSGHRRFPFGTRDQATREKAYEIMEKAIQFAVDTGIRTIQLAGYDVYYEEQDQGTIERFQQGLAWAVELAASNQVTLAVEIMDTPFMSSISRWKKWDEMINSPWFTVYPDIGNLSAWNDNIEQELALGINKISAIHLKDTYKITKDCAGQFRDVPFGDGCVDFKGFFEILAKLNYRGAFLIEMWTEKAEEPIAEIINARRWIEQKMKEGGFEC | not soluble
MCSTEKLSEADANLPYFHGALMNIDADQLLVNEGDFMVTMKKQLDINKLQLFLAVRLKKGIRRYEIKRTSKTAKIGGKTSQNIVKLINMLKADPIEIRGEKVVLKRAIPKGKFQLMHKDVIFQKKIGAGAYGTVYRGKLVKTDEVIAVKKLDPEGADEDGLAEMMKEARVMQLYDHPNIVKFHGFILDDLPYLLVLEYCNGGAVEDRLRDKGEKIKVPTRVKYTYMAACGMDYLHKKNCIHRDIASRNCLIHKGVVKMADFGMCRAQSVYKVDLKKPCNIRWLAPEVWDNGETRFNTDVYAFGIMMWEFFETPFKSPYVEMKAAQVKRKTRAGYRLPPPPSMPSRMVEIMSECWQVDAEKRPTAEELKEKLEEFKKKTENSITTSAPPTSVEKSKLSVSSEPTTKSVDPNKSRL | not soluble
MPPFMSGLRAVSSLLSCRNAISRKLVSRSGIPRGSFVSDQIRRFGSLSGVERCSSNWLMSNDDARVSFRRLPGSVSLLQRRHFLGCGDGEEGGGELSKIYEERRVLGYTPEQMFNVVAAVDLYHGFVPWCQRSEVLKEYPDGSFDAELEIGFKFLVESYISHVESERPKWIKTTARDTGLFDHLINLWQFKPGPIPGTCDLHFHVDFKFNSPLYRQVASMFFKEVASRLVGAFSDRCRLVYGPGVRVDENAYEQRA | soluble
MGSDKIHHHHHHMLHYTKEDLLELGAEITTREIYQQPDVWREAFEFYQAKREEIAAFLQEIADKHDYIKVILTGAGTSAYVGDTLLPYFKEVYDERKWNFNAIATTDIVANPATYLKKDVATVLVSFARSGNSPESLATVDLAKSLVDELYQVTITCAADGKLALQAHGDDRNLLLLQPAVSNDAGFAMTSSFTSMMLTTLLVFDPTEFAVKSERFEVVSSLARKVLDKAEDVKELVDLDFNRVIYLGAGPFFGLAHEAQLKILELTAGQVATMYESPVGFRHGPKSLINDNTVVLVFGTTTDYTRKYDLDLVREVAGDQIARRVVLLSDQAFGLENVKEVALGCGGVLNDIYRVFPYIVYAQLFALLTSLKVENKPDTPSPTGTVNRVVQGVIIHEYQK | not soluble
MTKFDLNDSSVVVIVGSGAGGGTLGNELAQKGVKVVILEAGPRIENQDFINDEWESFSQLAWTDARTTSGTWRVAKDFSGLPAWIVKAVGGSTVHWAGASLRFDEHEFRVKSAYGNIPGANLLDWPVTLAEMEPWYAKAENKMGVTRTNGIPGLPGNNNFKVLEAGAKKLGYKTVHTGNMAINSQPRDGRGSCQQIGFCFQGCKSGAKWSTLYTEIPKGEATGNLEVRPSSMAVKIEHDAGGKVTGVVYADEAGAMQRQKARIVAVAGNSIESPRLLLNSASTMFPDGLANSSGQVGRNYMRHMTGSVYAVFEKSVHMYRGTTMAGIIRDEAANNPKRGFVGGYEMETLSIGLPFMAAFLNPGAWGRPFTSALDGYPRMAGMWLVGEDMPQETNRITLDPVVKDKFGQPVASVHFDDHPNDIAMRAHAYKQGAAVYDAVGATVTYPTPPYPSTHNLGTNRMSEKPRDGVVNKFGQSHDVKNLFVSDGSQFTSGAACNPTLTIVALAIRQADYIAGAMQKKEILEHHHHHH | not soluble
MDGRRLVVRHGADTSVDTVWNILTDTDCWADWGPSVTAVETATRYIDDGTTGRVCVAGAVWLPFEVTACTPYRWTWTVARLPATGHFVEERAGGSVVGFEIPPLATGYAPVCARACQRIATLAQQRDALEHHHHHH | soluble
MTNSNRRKFLKATGVGLLGGLAGCTRGGDSSGGDGSDGSSDGSDGSGGSDGGTSTSGSDGELAIPLSEYEDADIDWRQFEGSSINIGAVQHPWVSAIKPAVPVFEELTGIDVVWNVLPEQQFRTKRQTDVSTGAGQFDVFYMDQVVNQFREEGWIQPLDPFFDDDSLFDEDWYEPDDLFEASRWQAHGGGYSDTWTGMPITVEVQTQFYRKDLYDKHDLEVAETLEQFRQNAQTIHENESDVVGTVGRGDKGYGMNIYILNTFLREFGTSLWTEFPTDSGLDSDGVINAAEWYVSLLQDYGPEGASTQTWSDVLSTMQEGRAGHIVSDANLFWPGLTGSDSSVADNIGIAKAPSPADGQFSPNAFNWQISTSKNAQNSEQAFLFMVWASSQPTNTWMHVEGDAAFSVRQSVWENDEFRSRVGENFAQVTLESLQEAAPDPFDRKYPQWGQRYSEELQRAIAGQKSAEEAMTKAASVAEDIYSN | not soluble
MGSDKIHHHHHHMTGRNILTESESDRGRVLFSPAFRRLQQKAQVFSMEPNAAVRSRLTHSFEVSQIGRYIADLLSEKLGIATEQQAGALVNFVETACLMHDIGNPPFGHFGEEAIKKWFEDNGERCLRLSIGRPKPSDGACPDQAKVRDALVDFADFDGNPQGLRIVARLQWNTDEFGLNLTKTSLASFMKYIRMAGGEKSGIFTKKAGYFTTERDLVESVWREFGYELPQRFPLAYIMEAADDIAYCISDLEDSFEKDIVRPDDALSYVEEQYERHEFEDGDPKHVDIRRAIRQMRAKERESGGEFTFTDFRTSLNNVIVNYVADRYVENHSKILDGTLESLIPGNEPPGAILNAIRKFCREHVYTHESVQRVELAGYNAIRGLLEQCSSLLCISAEGFRAARANEKQDAKGQALVLEPKLLRLFPEKYIKVYDYHLKQAGGDEADPFLEWTYRAHLIVDFISGMTDDFAMTTYRTLAGMRL | not soluble
